Reference: paper PMC7600612 (2020)

T1: FGFRL1 Ig2 (Homo sapiens, UniProt Q8N441)
T1 chain: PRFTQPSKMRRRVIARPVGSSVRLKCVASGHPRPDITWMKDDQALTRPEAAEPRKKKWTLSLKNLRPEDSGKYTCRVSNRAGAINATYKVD

B1: FGF8 (protein)
chain: QEGPGRGPALGRELASLFRAGREPQGVSQQHVREQSLVTDQLSRRLIRTYQLYSRTSGKHVQVLANKRINAMAEDGDPFAKLIVETDTFGSRVRVRGAETGLYICMNKKGKLIAKSNGKGKDCVFTEIVLENNYTALQNAKYEGWYMAFTRKGRPRKGSKTRQHQREVHFMKRLPRGHHTTEQSLRFEFLNYPPFTRSLRGSQRTWAPEPR

Experiments:
[1] = target: FGFR1 (Homo sapiens) (UniProt P11362); conditions: cited from earlier work
FGFR1 (Homo sapiens), sequence (P11362 22-822 P252R): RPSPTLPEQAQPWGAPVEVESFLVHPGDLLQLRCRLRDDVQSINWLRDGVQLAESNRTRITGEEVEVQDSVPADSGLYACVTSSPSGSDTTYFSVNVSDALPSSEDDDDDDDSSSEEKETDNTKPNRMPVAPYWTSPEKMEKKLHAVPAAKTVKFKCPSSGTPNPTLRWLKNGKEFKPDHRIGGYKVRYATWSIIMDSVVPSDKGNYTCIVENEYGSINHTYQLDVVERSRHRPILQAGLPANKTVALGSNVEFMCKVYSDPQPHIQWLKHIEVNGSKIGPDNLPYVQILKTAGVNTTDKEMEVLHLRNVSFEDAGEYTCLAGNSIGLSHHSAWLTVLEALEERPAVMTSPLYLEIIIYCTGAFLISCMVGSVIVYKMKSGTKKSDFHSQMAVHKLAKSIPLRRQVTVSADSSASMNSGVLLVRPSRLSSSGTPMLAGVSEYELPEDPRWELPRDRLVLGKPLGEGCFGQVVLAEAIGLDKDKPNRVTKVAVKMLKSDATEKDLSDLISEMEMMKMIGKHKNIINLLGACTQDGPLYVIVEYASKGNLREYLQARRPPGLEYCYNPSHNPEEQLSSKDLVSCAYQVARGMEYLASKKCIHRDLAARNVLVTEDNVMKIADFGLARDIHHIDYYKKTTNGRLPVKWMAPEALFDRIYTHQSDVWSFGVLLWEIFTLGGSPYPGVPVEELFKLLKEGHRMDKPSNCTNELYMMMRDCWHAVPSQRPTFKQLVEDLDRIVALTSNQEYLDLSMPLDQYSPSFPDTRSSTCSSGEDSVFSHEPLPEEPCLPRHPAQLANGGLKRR

[2] = target: FGFRL1 (Homo sapiens) (UniProt Q8N441); conditions: cited from earlier work
FGFRL1 (Homo sapiens), sequence (Q8N441 25-378): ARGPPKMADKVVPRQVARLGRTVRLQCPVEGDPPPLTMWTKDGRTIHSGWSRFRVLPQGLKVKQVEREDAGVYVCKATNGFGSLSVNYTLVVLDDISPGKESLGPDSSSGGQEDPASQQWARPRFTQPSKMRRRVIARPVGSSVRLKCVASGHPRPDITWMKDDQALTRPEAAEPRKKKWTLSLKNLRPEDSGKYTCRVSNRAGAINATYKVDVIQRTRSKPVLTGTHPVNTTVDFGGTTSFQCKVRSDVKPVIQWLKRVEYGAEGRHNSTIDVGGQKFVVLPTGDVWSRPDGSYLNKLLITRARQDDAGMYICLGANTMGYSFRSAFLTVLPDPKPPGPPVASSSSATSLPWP

[3] = target: FGFR2 (Homo sapiens) (UniProt P21802); conditions: cited from earlier work
FGFR2 (Homo sapiens), sequence (P21802 22-377): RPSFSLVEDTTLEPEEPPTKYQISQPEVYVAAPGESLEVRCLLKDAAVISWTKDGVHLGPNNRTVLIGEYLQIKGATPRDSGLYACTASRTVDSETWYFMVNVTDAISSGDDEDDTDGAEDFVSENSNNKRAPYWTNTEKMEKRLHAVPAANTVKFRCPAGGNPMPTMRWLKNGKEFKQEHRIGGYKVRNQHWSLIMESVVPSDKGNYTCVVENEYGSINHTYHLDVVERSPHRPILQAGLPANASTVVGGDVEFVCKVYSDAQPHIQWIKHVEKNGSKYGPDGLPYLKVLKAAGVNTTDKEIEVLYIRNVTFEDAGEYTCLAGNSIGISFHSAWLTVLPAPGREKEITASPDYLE

[4] = target: Human FGF8b (fibroblast growth factor 8, isoform b) (human); assay: SPR; Biacore X100; FGF8b covalently attached (amine coupling, 295 RU) to a matrix-free C1 chip; FGFRL1 polypeptides injected at 3.125-50 nM in HBS-EP+ (10 mM HEPES, 150 mM NaCl, 3 mM EDTA, 0.05% P20, pH 7.4), 30 μL/min, 120 s association, 240 s dissociation; global kinetic fit to a 1:1 model
[5] = target: T1, FGFRL1 Ig2; assay: SPR

| Molecule | Kd [4] [nM] | koff [4] [s⁻¹] | kon [4] [M⁻¹ s⁻¹] | further results |
| --- | --- | --- | --- | --- |
| FGF2 (from UniProt P09038) |  |  |  | Kd [1]: 24 nM |
| FGF3 (from UniProt P11487) |  |  |  | Kd [2]: 4.2 nM |
| FGF8 (from UniProt P55075) |  |  |  | Kd [3]: 130 nM |
| FGFRL1 Ig2 construct (from UniProt Q8N441 25-26; Q8N441 118-239) (domain or fragment) | 1.73 | 0.0092 | 5.32e+06 |  |
| FGFRL1 Ig12 construct (from UniProt Q8N441 25-239) (domain or fragment) | 1.94 | 0.0107 | 5.49e+06 |  |
| FGFRL1 Ig23 construct (from UniProt Q8N441 25-26; Q8N441 118-357) (domain or fragment) | 2.07 | 0.000806 | 390000 |  |
| FGFRL1 Ig123 (complete extracellular domain of human fibroblast growth factor receptor-like protein 1) (from UniProt Q8N441 25-359) (domain or fragment) | 3.37 | 0.00126 | 373000 |  |
| B1 |  |  |  | Kd [5]: 1.7 nM |
